Assay results published in patent US20180237497A1 (CANCER RESEARCH TECHNOLOGY, published 2018).
Residue numbers refer to the chain shown, from its start. In names and notes the source's numbering stands.

B1: domain 11^AB5 Q1569R P1597H G1603K (receptor)
chain: MKSNEHDDCQVTNPSTGHLFDLSSLSGRAGFTAAYAKGWGVYMSICGENENCPPGVGACFGRTRISVGKANKRLRYVDQVLQLVYKDGSHCPSKSKLSYKSVISFVCRPEAGPTNRPMLISLDKQTCTLFFSWHTPLACEQATECSV
notes: See m5
B2: domain 11^AB5 Q1569R P1597H S1602H (receptor)
chain: B1 chain with S95H, K96G
notes: See m5
B3: IGF2R domain 11^AB5 (receptor)
chain: B1 chain with R62Q, H90P, K96G
notes: His6-tagged soluble domain 11; also called 1542YAKGWG1547
B4: domain 11^AB3 Q1569R P1597H S1602H G1603K (receptor)
chain: B1 chain with A36S, G38S, W39G, G40V, S95H
notes: See m5
B5: domain 11^AB3 Q1569R P1597H S1602H (receptor)
chain: B1 chain with A36S, G38S, W39G, G40V, S95H, K96G
notes: See m5
B6: domain 11^AB3 Q1569R P1597H (receptor)
chain: B1 chain with A36S, G38S, W39G, G40V, K96G
notes: See m5
B7: domain 11^AB5 Q1569R P1597H (receptor)
chain: B1 chain with K96G
notes: See m5
B8: domain 11^AB5 P1597H S1602H (receptor)
chain: B1 chain with R62Q, S95H, K96G
notes: See m5

Target: T1, human IGF2^1-67 (mature insulin-like growth factor 2) (human, UniProt P01344 25-91, biotinylated (site not stated) where immobilised on the chip (Tables 1-4))
T1 construct: mature; also called mature IGF2; biotinylated IGF2
T1 sequence (P01344 25-91): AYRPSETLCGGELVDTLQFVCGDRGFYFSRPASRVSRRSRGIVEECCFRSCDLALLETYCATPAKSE
Experiment: SPR (Biacore T200, 25 °C, HBS-EP pH 7.4); ΔΔG° = RT ln(KD mutant / KD domain 11^AB3); box AB+CD+FG+FG, dashed outline
Procedure: (§1) Boxes show the change in the binding free energy contribution, ΔΔGº, for the indicated mutants. The loop/s that contains the mutation/s is indicated in each box. The ΔΔGº values were calculated as ΔΔGº=ΔGº domain 11^mutant−ΔGº domain 11^AB3=RTln(KD domain 11^mutant/KD domain 11^AB3). Additive and non-additive contributions of single point mutations are shown when calculated with a box solid line and dashed line, respectively.
(§2) Final kinetic analysis of mutants by SPR was conducted using a Biacore T200 biosensor at 25° C. in either HBS-EP (10 mM HEPES pH 7.4, 150 mM NaCl, 3 mM EDTA, and 0.005% (v/v) surfactant P20) or MES-EP (20 mM MES pH 6.5, 150 mM NaCl, 3 mM EDTA, and 0.005% (v/v) surfactant P20) at a flow-rate of 40 μL min⁻¹. […] This interaction was also analysed by immobilizing the Fc-domain 11^AB5 and Fc-domain 11^AB5-RHH (or Fc-domain 11^I1572A as control) by Human Antibody Capture (monoclonal mouse anti-human IgG antibody immobilised on a CM5 chip by amine coupling, GE Healthcare) with and without human IgG1 Fc fragment (Bethyl Laboratories, UK) in the control flow cell. […] Steady state affinities were determined using the kinetic data, taking the response average at 5 seconds before injection end and for 5 seconds average.

Binder	ΔΔG [kcal/mol]
B1	-1.7

Target: T1, human IGF2^1-67 (mature insulin-like …)
Experiment: SPR (Biacore T200, 25 °C, HBS-EP pH 7.4); ΔΔG° = RT ln(KD mutant / KD domain 11^AB3); box AB+CD+FG+FG, solid outline
Procedure: as §1, §2

Binder	ΔΔG [kcal/mol]
B2	-1.87

Target: T1, human IGF2^1-67 (mature insulin-like …)
Experiment: SPR steady state, biotin-IGF2 on chip, pH 7.4
How it was run: (§3)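 Biotinylated IGF2 captured on streptavidin chip; recombinant M6P/IGF2R domain 11 mutants (E. coli or P. pastoris) injected at 25° C in HBS-EP, pH 7.4, 40 μL min⁻¹. Kinetics fitted to 1:1 model; steady-state KD from 5 s response averages before injection end; 2-5 repeats on two chips.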

Binder	Kd [nM]
B3	6.44

Target: T1, human IGF2^1-67 (mature insulin-like …)
Experiment: SPR, biotin-IGF2 on chip, lower pH (6.5); reference domain 11^WT
Procedure: (§4) Final kinetic analysis of mutants by SPR was conducted using a Biacore T200 biosensor at 25° C. in either HBS-EP (10 mM HEPES pH 7.4, 150 mM NaCl, 3 mM EDTA, and 0.005% (v/v) surfactant P20) or MES-EP (20 mM MES pH 6.5, 150 mM NaCl, 3 mM EDTA, and 0.005% (v/v) surfactant P20) at a flow-rate of 40 μL min⁻¹. […] For the analysis of the Fc-domain 11^AB5 interaction, approximately 50 RU of a biotinylated IGF2:biotinylated ubiquitin mixture (1:8 proportion) was immobilized on the CM5-streptavidin chip. This interaction was also analysed by immobilizing the Fc-domain 11^AB5 and Fc-domain 11^AB5-RHH (or Fc-domain 11^I1572A as control) by Human Antibody Capture (monoclonal mouse anti-human IgG antibody immobilised on a CM5 chip by amine coupling, GE Healthcare) with and without human IgG1 Fc fragment (Bethyl Laboratories, UK) in the control flow cell. […] T200 BiaEvaluation software (GE Healthcare) was used to fit the resulting curves according to a 1:1 binding model. Steady state affinities were determined using the kinetic data, taking the response average at 5 seconds before injection end and for 5 seconds average. Thermodynamic data was performed across the temperature range of 10° C. to 30° C., van't Hoff and Erying plots generated and ΔH, −TΔS and ΔG values determined as previously described.

Binder	fold improved overall affinity compared to domain 11^WT [fold]
B4	100
B5	100

Target: T1, human IGF2^1-67 (mature insulin-like …)
Experiment: SPR (Biacore T200, 25 °C, HBS-EP pH 7.4); ΔΔG° = RT ln(KD mutant / KD domain 11^AB3); box AB+CD+FG+FG
Procedure: as §1, §2

Binder	ΔΔG [kcal/mol]
B4	-1.9
B5	-1.79

Target: T1, human IGF2^1-67 (mature insulin-like …)
Experiment: SPR, pH 7.4; pH 7.4
Procedure: as §4

Binder	Kd [nM]
B4	0.78

Target: T1, human IGF2^1-67 (mature insulin-like …)
Experiment: SPR steady state, biotin-IGF2 on chip, pH 7.4
Remark: another data set of the same source
How it was run: (§5)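 Biacore SPR at 25 °C in HBS-EP pH 7.4 or MES-EP pH 6.5, flow 40 μL/min; ~50 RU biotin-IGF2:biotin-ubiquitin (1:8) on streptavidin chip, or Fc-domain 11 captured via anti-human IgG. Kinetics fitted to 1:1 model; steady-state affinity from response averaged 5 s before injection end.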

Binder	Kd [nM]
B3	6.44
B6	1.73
B4	1.31
B5	1.53
B7	5.4
B1	2.01
B8	2.93
B2	2

Target: T1, human IGF2^1-67 (mature insulin-like …)
Experiment: SPR
From the text: Surface plasmon resonance (SPR) binding analysis of recombinant M6P/IGF2R domain 11 mutants interaction with IGF2. Kon indicates association (on) rate; koff, dissociation (off) rate; RU, response units. Binding to IGF2 assessed with BIAcore T200 using purified biotinylated IGF2 and IGF1 on a streptavidin biosensor chip. Recombinant proteins were expressed either in E. coli and/or P. pastoris. All the mutants in the FG and CD loops are on the domain 11^AB5 background for the AB loop unless otherwise stated. All experiments were carried out at 25° C. in HBS-EP buffer (pH 7.4), were repeated 2-5 times on two independent BIAcore chips. nd=not determined. Data for KD expressed as mean of each experiment, and means of kon and koff are shown.
as §4, with “model.” for “model. Steady state affinities were determined using the kinetic data, taking the response average at 5 seconds before injection end and for 5 seconds average. Thermodynamic data was performed across the temperature range of 10° C. to 30° C., van't Hoff and Erying plots generated and ΔH, −TΔS and ΔG values determined as previously described.”

Binder	fold higher affinity than domain 11^WT [fold]
B3	10

Target: T1, human IGF2^1-67 (mature insulin-like …)
Experiment: SPR kinetic, biotin-IGF2 on chip, pH 7.4
How it was run: as §5

Binder	Kd [nM]	koff [s⁻¹]	kon [M⁻¹ s⁻¹]
B3	5.07	0.0208	4.21e+06
B6	0.9	0.0153	1.89e+07
B4	0.62	0.0108	1.75e+07
B5	0.74	0.01	1.41e+07
B7	1.95	0.0058	3.2e+06
B1	0.87	0.0058	6.67e+06
B8	1.17	0.0046	3.5e+06
B2	0.65	0.0038	5.9e+06

Target: T1, human IGF2^1-67 (mature insulin-like …)
Experiment: SPR (Biacore T200, 25 °C, HBS-EP pH 7.4); ΔΔG° = RT ln(KD mutant / KD domain 11^AB3); box AB+CD+FG, dashed outline
Procedure: as §1, §2

Binder	ΔΔG [kcal/mol]
B6	-1.68
B7	-1.22

Target: T1, human IGF2^1-67 (mature insulin-like …)
Experiment: SPR (Biacore T200, 25 °C, HBS-EP pH 7.4); ΔΔG° = RT ln(KD mutant / KD domain 11^AB3); box AB+FG+FG, solid outline
Procedure: as §1, §2

Binder	ΔΔG [kcal/mol]
B8	-1.52

Target: T1, human IGF2^1-67 (mature insulin-like …)
Experiment: SPR (Biacore T200, 25 °C, HBS-EP pH 7.4); ΔΔG° = RT ln(KD mutant / KD domain 11^AB3); box AB
Procedure: as §1, §2

Binder	ΔΔG [kcal/mol]
B3	-0.65

Target: T1, human IGF2^1-67 (mature insulin-like …)
Experiment: SPR kinetic, biotin-IGF2 on chip, pH 6.5
Procedure: Measurements were carried out at 25° C. in MES-EP buffer, 20 mM MES pH 6.5, 150 mM NaCl, 3 mM EDTA, and 0.005% (v/v) surfactant P20). Data for KD expressed as mean of each experiment, and means of kon and koff are shown.
as §4

Binder	Kd [nM]	koff [s⁻¹]	kon [M⁻¹ s⁻¹]
B3	4.38	0.018	4.17e+06
B6	0.47	0.0091	1.99e+07
B4	0.43	0.0087	2.43e+07
B5	0.4	0.0064	1.61e+07
B7	1.46	0.0034	2.37e+06
B1	0.69	0.0051	7.54e+06
B8	0.62	0.0029	5.32e+06
B2	0.71	0.003	4.41e+06

Target: T1, human IGF2^1-67 (mature insulin-like …)
Experiment: SPR kinetic, biotin-IGF2 on chip, pH 7.4
Remark: another data set of the same source
How it was run: as §3

Binder	Kd [nM]	koff [s⁻¹]	kon [M⁻¹ s⁻¹]
B3	5.07	0.0208	4.21e+06
